Laboratory results reported in US20150283227A1, “SYNTHETIC ENV PROTEINS” (priority 2012, published 2015).
Values joined by “and” are separate entries in the source; they are usually repeats but may differ in a detail not shown here. Equal entries are not always repeated. Where two headings read alike, the source gives them in different places. Where a SMILES comes first, the peptide text is derived from it. [ ]: non-standard residue; d: D form. ξ: configuration not given here. Orn(CH(NH2)2) = NC(N)NCCC[C@H](N)C(=O)O; Ile(3ξ) = CCC(C)[C@H](N)C(=O)O; Thr(3ξ) = CC(O)[C@H](N)C(=O)O

What was measured:
PG9 UCA = test: SPR binding to unmutated ancestor of PG9; set-up: species or system human; settings: for SPR binding to PG9 UA: Example 1
Protocol: (§1) Only the V1/V2 mAb CH58 bound to the glycan-deficient (aglycone) peptide (FIG. 9A). V1/V2 bNAbs ([…], CH01) bound weakly to V1/V2 GlcNAc2 peptide (FIG. 9B). In contrast, both bNAbs PG9 and CH01 bound avidly to the glycopeptides, V1/V2 Man3GlcNAc2 and V1/V2 Man5GlcNAc2 (FIGS. 9C and 9D). CH58 bound weakly to both glycopeptides. Each of the mAbs was captured on a human Fc specific IgG directly immobilized on a BIAcore CM5 sensor chip. Each of the V1/V2 peptides (3 min at 50 uL/min) was injected over the mAb captured surface and SPR binding was monitored on a BIAcore 3000 instrument. Non-specific binding of peptides was subtracted following measurement of signal on a surface with a control ant-RSV mab Synagis.
(§2) The binding Kd (disassociation constant) of the UAs ranges from about 0.15 to 0.2 μM.
(§3) V1V2 glycopeptide binding Kd and rate constant measurements were carried out on BIAcore 3000 instruments as described earlier (Alam et al, Immunol. 178(7):4424-4435 (2007), Alam et al, J. Virol. 82(1):115-125 (2008)). Anti-human IgG Fc antibody (Sigma Chemicals) was immobilized on either a CM3 or CM5 (CM3 for kinetics and Kd determination) sensor chip (to minimize non-specific binding of peptides to chip matrix) to about 5000 Resonance Unit (RU) and each antibody was captured to about 100-200 RU on individual flow cells, in addition to one flow cell with the control Synagis mAb on the same sensor chip. Non-specific binding of V1V2 glycopeptide was double-referenced by substracting the control surface and blank buffer flow for each mAb-V1V2 glycopeptide binding interaction. […] SPR curve fitting analysis was performed using global fit of multiple titrations to the 1:1 Langmuir model. All data analysis was performed using the BIAevaluation 4.1 analysis software (GE Healthcare).

CH58 UCA = test: SPR binding to unmutated ancestor of CH58; set-up: species or system human; settings: Example 1
Protocol: as §1, §3

V2 mAb CH59 = test: SPR binding of V1V2 peptides to captured V2 mAb CH59; set-up: species or system human; settings: Example 6; peptide oxidized by solubilization in DMSO, 50 ug/mL
Text: FIGS. 42A-42D. Selective binding of V1V2 BnAbs to mannose derivatized V1V2 glycopeptides but not to aglycone or GlcNAc2 V1V2 peptides. SPR curves showing preferential binding of PG9 and CH01 BnAbs to Man5—(FIG. 42A) and Man3—(FIG. 42B) GlcNAc2 V1V2 glycopeptides but not to GlcNAc2 (FIG. 42C) and aglycone (FIG. 42D) peptides. By contrast, V2 mAbs CH58 and CH59 bound to both aglycone ([…]) and GlcNAc2 (FIG. 42D) V1V2 peptides. Each V1V2 peptide was oxidized by solubilization in DMSO and injected over the indicated MAb at 50 ug/mL. Data shown is after reference subtraction of non-specific signal measured over the control mAb (Synagis). Binding data are representative of at least three experiments for Man5 and Man3 V1V2 peptides and two experiments for GlcNAc2 and aglycone V1V2.
V1V2 glycopeptide binding Kd and rate constant measurements were carried out on BIAcore 3000 instruments as described earlier (Alam et al, Immunol. 178(7):4424-4435 (2007), Alam et al, J. Virol. 82(1):115-125 (2008)). Anti-human IgG Fc antibody (Sigma Chemicals) was immobilized on either a CM3 or CM5 (CM3 for kinetics and Kd determination) sensor chip (to minimize non-specific binding of peptides to chip matrix) to about 5000 Resonance Unit (RU) and each antibody was captured to about 100-200 RU on individual flow cells, in addition to one flow cell with the control Synagis mAb on the same sensor chip. […]

V2 mAb CH58 = test: SPR binding of V1V2 peptides/glycopeptides to captured V2 mAb CH58; set-up: species or system human
[1] = Aqueous solubility in phosphate buffer; type: physicochemical
697D = test: SPR binding to conformational V2 mAb 697D; settings: Example 1
BnAb PG9 = type: binding, human
Protocol: V1V2 glycopeptide binding Kd and rate constant measurements were carried out on a BIAcore 3000 instrument using an anti-human Ig Fc capture assay as described earlier (Alam, S. M.; McAdams, M.; Boren, D.; Rak, M.; Scearce, R. M.; Gao, F.; Camacho, Z. T.; Gewirth, D.; Kelsoe, G.; Chen, P.; Haynes, B. F. J. Immunol. 2007, 178, 4424-4435.). Anti-human IgG Fc antibody (Sigma Chemicals) was immobilized on a CM5 sensor chip to about 10000 response units (RU), and each antibody was captured to about 300 RU. Anti-RSV Synagis mAb was captured on the same sensor chip as a control surface. Non-specific binding and drift in signal was double referenced by subtracting binding to the control surface and blank buffer flow for each of the peptide binding interactions. All curve-fitting analyses were performed using global fit of multiple titrations to the 1:1 Langmuir model. All data analysis was performed using the BIAevaluation 4.1 analysis software (GE Healthcare).

CH01 UCA = test: SPR binding to unmutated ancestor of CH01; set-up: species or system human; settings: for SPR binding to CH01 UA: Example 1
Protocol: as §1, §2, §3

BnAb CH01 = test: SPR binding of V1V2 peptides/glycopeptides to captured mAb CH01; set-up: species or system human
[2] = target: Man5GlcNAc2 V1V2 glycopeptide, DMSO-oxidized disulfide-linked dimer (HIV-1 strain AE.CM244 (A244)); test: SPR kinetics, DMSO-oxidized dimer; reference CH58 UCA
[3] = target: Man5GlcNAc2 V1V2 glycopeptide, DMSO-oxidized disulfide-linked dimer (HIV-1 strain AE.CM244 (A244)); test: SPR kinetics, mAb captured on anti-IgG, DMSO-oxidized dimer injected; 1:1 Langmuir
[4] = target: Man3GlcNAc2 V1V2 glycopeptide, DMSO-oxidized disulfide-linked dimer (HIV-1 strain AE.CM244 (A244)); test: as above
[5] = target: Man5GlcNAc2 V1V2 glycopeptide, DMSO-oxidized disulfide-linked dimer (HIV-1 strain AE.CM244 (A244)); test: SPR kinetics, mAb captured on anti-IgG, DMSO-oxidized dimer injected; faster component of the dissociation phase
[6] = target: Man3GlcNAc2 V1V2 glycopeptide, DMSO-oxidized disulfide-linked dimer (HIV-1 strain AE.CM244 (A244)); test: as above
[7] = target: Man5GlcNAc2 V1V2 glycopeptide, DMSO-oxidized disulfide-linked dimer (HIV-1 strain AE.CM244 (A244)); test: SPR kinetics, DMSO-oxidized dimer; reference CH01
[8] = target: Man5GlcNAc2 V1V2 (1), not deliberately oxidized (HIV-1 strain AE.CM244 (A244)); test: SPR, BIAcore 3000, PG9 captured on anti-human Ig Fc, glycopeptide as analyte; 1:1 Langmuir global fit
[9] = target: Man3GlcNAc2 V1V2 (2), not deliberately oxidized (HIV-1 strain AE.CM244 (A244)); test: as above
[10] = target: Man5GlcNAc2 V1V2 glycopeptide, DMSO-oxidized disulfide-linked dimer (HIV-1 strain AE.CM244 (A244)); test: SPR kinetics, DMSO-oxidized dimer injected over captured mAb
PG9 = settings: NMR studies, Man5GlcNAc2-Asn alone; read-out: Kd for binding of PG9; cited from earlier work
[11] = target: Man5GlcNAc2 V1V2 glycopeptide, DMSO-oxidized disulfide-linked dimer (HIV-1 strain AE.CM244 (A244)); test: SPR kinetics, DMSO-oxidized dimer; reference PG9
[12] = target: Man5GlcNAc2 V1V2 glycopeptide, DMSO-oxidized disulfide-linked dimer (HIV-1 strain AE.CM244 (A244)); test: SPR, DMSO-oxidized dimer 1-10 µg/mL over CH58 UCA captured on anti-IgG
[13] = target: Man3GlcNAc2 V1V2 glycopeptide, DMSO-oxidized disulfide-linked dimer (HIV-1 strain AE.CM244 (A244)); test: as above
[14] = listed as V1V2 aglycone peptide
[15] = Example 6, peptide solubilized/oxidized in DMSO, 50 μg/mL

Question: For `CCC(C)[C@H](NC(=O)[C@@H]1CCCN1C(=O)[C@@H](NC(=O)[C@@H](NC(=O)[C@H](CC(=O)O)NC(=O)[C@H](CC(C)C)NC(=O)[C@H](CCCCN)NC(=O)[C@H](Cc1ccc(O)cc1)NC(=O)[C@H](Cc1ccccc1)NC(=O)[C@H](CC(C)C)NC(=O)[C@H](C)NC(=O)[C@H](Cc1cnc[nH]1)NC(=O)[C@@H](NC(=O)[C@H](CCCCN)NC(=O)[C@H](CCC(N)=O)NC(=O)[C@H](CCCCN)NC(=O)[C@H](CCCCN)NC(=O)[C@H](CC(=O)O)NC(=O)[C@H](CCCNC(=N)N)NC(=O)[C@H](CC(C)C)NC(=O)[C@H](CCC(=O)O)NC(=O)[C@@H](NC(=O)[C@@H](NC(=O)[C@H](CCSC)NC(=O)[C@H](CC(N)=O)NC(=O)[C@H](Cc1ccccc1)NC(=O)[C@H](CO)NC(=O)[C@H](CS)NC(=O)[C@H](CC(N)=O)NC(=O)[C@H](CCCNC(N)N)NC(=O)[C@@H](NC(=O)[C@H](CCC(=O)O)NC(=O)[C@H](CC(=O)O)NC(=O)[C@@H](NC(=O)[C@@H](NC(C)=O)C(C)CC)C(C)O)C(C)C)C(C)O)C(C)O)C(C)C)C(C)CC)C(C)C)C(N)=O` (stereo partly drawn) [Aglycone V1V2] (Ac-[Ile(3ξ)][Thr(3ξ)]DEV[Orn(CH(NH2)2)]NCSFNM[Thr(3ξ)][Thr(3ξ)]ELRDKKQKVHALFYKLD[Ile(3ξ)]VP[Ile(3ξ)]-NH2), which “SPR binding to PG9 UA” value (PG9 UCA) is on record?
Answer: not to the aglycone peptide

Question: And the “SPR binding to PG9 UA” value (PG9 UCA; [14])?
Answer: no binding

Question: And the “SPR binding to PG9 UCA” value (PG9 UCA; Example 6)?
Answer: neither UCAs bound

Question: And the “SPR binding to CH58 UA” value (CH58 UCA)?
Answer: no binding

Question: What about the “SPR binding to CH59” value (V2 mAb CH59) of the same molecule?
Answer: bound

Question: And the “SPR binding to CH58” value (V2 mAb CH58; Example 1, antigen injected over captured mAb)?
Answer: bound

Question: And the “SPR binding to CH58” value (V2 mAb CH58; Example 6, peptide solubilized/oxidized in DMSO, 1-50 μg/mL)?
Answer: retained

Question: And the aqueous solubility [1]?
Answer: Poor aqueous solubility

Question: What about the “SPR binding to 697D” value (697D) of the same molecule?
Answer: not to the aglycone peptide

Question: And the “SPR binding to PG9” value (BnAb PG9; Example 5, peptides 200 μg/mL, glycans 25 μg/mL over captured PG9)?
Answer: not detected

Question: What about the “SPR binding to PG9” value (BnAb PG9; Example 5, peptides 200 μg/mL, glycans 25 μg/mL over captured PG9, listed as V1V2 aglycone) of the same molecule?
Answer: minimal to no binding

Question: And the “SPR binding to PG9” value (BnAb PG9; [15])?
Answer: no binding

Question: What about the “SPR binding to CH01 UA” value (CH01 UCA) of the same molecule?
Answer: not to the aglycone peptide

Question: What about the “SPR binding to CH01 UA” value (CH01 UCA; [14]) of the same molecule?
Answer: no binding

Question: What about the “SPR binding to CH01 UCA” value (CH01 UCA; Example 6) of the same molecule?
Answer: neither UCAs bound

Question: And the “SPR binding to CH01” value (BnAb CH01; Example 1, peptide injected over captured mAb)?
Answer: not to the aglycone peptide

Question: And the “SPR binding to CH01” value (BnAb CH01; [15])?
Answer: no binding

Question: Which results are given for CH01 UCA (antibody)?
Answer: fold higher affinity than the UCA of CH58 [2]: 5 fold; kon [3]: 8490 M⁻¹ s⁻¹; kon [4]: 2060 M⁻¹ s⁻¹; Kd [5]: 0.118 µM; koff [5]: 0.000721 s⁻¹; Kd [6]: 1.78 µM; koff [6]: 0.00363 s⁻¹; fold weaker binding than the mature BnAb [7]: 3 fold

Question: With PG9 (antibody) as the molecule, how does the Kd [8] read?
Answer: 0.311 µM

Question: What about the Kd [9] of the same molecule?
Answer: 0.119 µM

Question: And the fold higher affinity than CH01 for the same peptide [10]?
Answer: 2 fold

Question: What about the Kd [3] of the same molecule?
Answer: 0.0294 µM

Question: What about the koff [3] of the same molecule?
Answer: 0.000271 s⁻¹

Question: What about the kon [3] of the same molecule?
Answer: 9200 M⁻¹ s⁻¹

Question: And the Kd [4]?
Answer: 0.0371 µM

Question: What about the koff [4] of the same molecule?
Answer: 0.000147 s⁻¹

Question: What about the kon [4] of the same molecule?
Answer: 3970 M⁻¹ s⁻¹

Question: Which Kd (PG9) does the source give for `CC(=O)N[C@@H]1[C@@H](O)[C@H](O[C@@H]2O[C@H](CO)[C@@H](O[C@@H]3O[C@H](CO[C@H]4O[C@H](CO[C@H]5O[C@H](CO)[C@@H](O)[C@H](O)[C@@H]5O)[C@@H](O)[C@H](O[C@H]5O[C@H](CO)[C@@H](O)[C@H](O)[C@@H]5O)[C@@H]4O)[C@@H](O)[C@H](O[C@H]4O[C@H](CO)[C@@H](O)[C@H](O)[C@@H]4O)[C@@H]3O)[C@H](O)[C@H]2NC(C)=O)[C@@H](CO)O[C@H]1NC(=O)C[C@H](N)C(=O)O` [Man5GlcNAc2-Asn] here?
Answer: 1000 to 2000 µM and 1600 µM

Question: With PG9 UCA (antibody) as the molecule, how does the fold higher affinity than the UCA of CH58 [2] read?
Answer: 5 fold

Question: And the fold weaker binding than the mature BnAb [11]?
Answer: 3 fold

Question: What about the kon [3] of the same molecule?
Answer: 7410 M⁻¹ s⁻¹

Question: What about the kon [4] of the same molecule?
Answer: 5330 M⁻¹ s⁻¹

Question: And the Kd [5]?
Answer: 0.0976 µM

Question: And the koff [5]?
Answer: 0.000723 s⁻¹

Question: What about the Kd [6] of the same molecule?
Answer: 1.06 µM

Question: And the koff [6]?
Answer: 0.00566 s⁻¹

Question: Which Kd [12] does the source give for CH58 UCA (antibody) here?
Answer: 0.5 µM

Question: And the Kd [13]?
Answer: 0.6 µM
